According to patent EP0138995B1, “REGULATION OF ENZYMES WHICH UTILIZE TETRAHYDROBIOPTERIN OR TETRAHYDROFOLATE COFACTORS WITH 6, 6-DISUBSTITUTED-TETRAHYDROPTERIDINES” (South Alabama Medical Science Foundation, priority 1983, dated 1984):

Columns and labels:
[1] = substrate: CC1=Nc2c(O)nc(N)nc2NC1; experiment: Quinoid dihydropterin as substrate for dihydropteridine reductase (beef liver); assay type: biochemical; settings: other: substrate produced by Peroxidase + H2O2; pH 7.4; 27.0 °C
[2] = substrate: CC1(C)CNC2=NC(N)=NC(=O)C2=N1; experiment: as above; assay type: biochemical
Protocol: Substrate Properties of Quinoid-6,6-dimethyldihydropterin for Dihydropteridine Reductase: 6,6-Dimethyltetrahydropterin was oxidized by three different procedures to produce q-6,6-Me₂PH₂ to be tested as a substrate for dihydropteridine reductase. • (i) Chemical synthesis. […] The q-6,6-Me₂PH₂ was dissolved in 0.1 M Tris·HCl, pH 7.4 immediately before use to make a 10 mM stock solution, which was kept on ice. To test for substrate activity a small volume (<50 µl) was added to a cuvette containing 0.1 M Tris·HCl, pH 7.4, which had been temperature equilibrated to 27°, and the absorbance at 340 nm was measured. • (ii) Oxidation by peroxidase and H₂O₂. Peroxidase (6 units/ml final volume) was temperature equilibrated in 0.1 M Tris·HCl, pH 7.4, at 27° for 5 minutes. H₂O₂ (1.2 mM final concentration) was then added, followed by 6,6-Me₂PH₄. Conversion to q-6,6-Me₂PH₂, monitored at 340 nm, was complete within a few seconds. • (iii) Generation by phenylalanine hydroxylase: Phenylalanine hydroxylase (0.6 units/ml), catalase (2500 units/ml), and phenylalanine (3 mM final concentration) were temperature equilibrated at 27° in 0.1 M Tris·HCl, pH 7.4. At 5 minutes, 6,6-Me₂PH₄ was introduced and monitored at 340 nm. Conversion of 6,6-Me₂PH₄ to quinoid dihydropterin was complete in 1-7 minutes, depending on the concentration. To each of the above solutions containing q-6,6-Me₂PH₂, NADH (final concentration 0.1 mM) as added, and the background rate recorded for 1 minute. Reaction was then initiated with dihydropteridine reductase (0.01 units/ml). Rates were calculated from the enzyme dependent decrease in O.D. at 340 nm, using an extinction coefficient of 9.8 for the chemically synthesized substrate and 6.2 for the peroxidase- and phenylalanine-hydroxylase-containing reactions in which the pterin is maintained in the quinoid form. Due to the high concentrations of q-6,6-Me₂PH₂ required to obtain an accurate Km, cuvettes of 0.5 cm light path were used.

[3] = substrate: CC1(c2ccccc2)CNC2=NC(N)=NC(=O)C2=N1; experiment: as above; assay type: biochemical; settings: other: substrate produced by Peroxidase + H2O2; pH 7.4; 27.0 °C
[4] = substrate: CC1(C)CNC2=NC(N)=NC(=O)C2=N1; experiment: Quinoid dihydropterin as substrate for dihydropteridine reductase (sheep liver); assay type: biochemical
Protocol: The quinoid was generated from 6,6-Me₂PH₄, as outlined previously. […] Peroxidase (6 units/ml final volume) was temperature equilibrated in 0.1 M Tris·HCl, pH 7.4, at 27° for 5 minutes. H₂O₂ (1.2 mM final concentration) was then added, followed by 6,6-Me₂PH₄. Conversion to q-6,6-Me₂PH₂, monitored at 340 nm, was complete within a few seconds. • (iii) Generation by phenylalanine hydroxylase: […] At 5 minutes, 6,6-Me₂PH₄ was introduced and monitored at 340 nm. Conversion of 6,6-Me₂PH₄ to quinoid dihydropterin was complete in 1-7 minutes, depending on the concentration. […] Reaction was then initiated with dihydropteridine reductase (0.01 units/ml). Rates were calculated from the enzyme dependent decrease in O.D. at 340 nm, using an extinction coefficient of 9.8 for the chemically synthesized substrate and 6.2 for the peroxidase- and phenylalanine-hydroxylase-containing reactions in which the pterin is maintained in the quinoid form. […] This Km was obtained regardless of the method of generation of the quinoid dihydropterin. The Vmax's were also the same for the dihydropteridine reductase catalyzed reduction of quinoid generated by any of the three methods (Table VI). Thus, the quinoid products of each procedure appear to behave equally.

[5] = substrate: CC1CNc2nc(N)[nH]c(=O)c2N1; experiment: Phenylalanine hydroxylase cofactor assay (cofactor consumption and tyrosine formation); assay type: biochemical, Rat; settings: other: 1 mM phenylalanine, atmospheric oxygen, 0.1 M Tris·HCl, pH 7.4, 27°C
Protocol: (§1) The 6,6-dimethyl substituted tetrahydropterin was tested for cofactor activity in a standard phenylalanine hydroxylase assay in which both cofactor consumption and tyrosine formation were monitored. […] An apparent Michaelis constant was determined at 1 mM phenylalanine and atmospheric oxygen with concentrations of 6,6-Me₂PH₄ ranging from 0.02-0.3 mM. The effect of a second methyl at the 6-position slightly increases the affinity for phenylalanine hydroxylase, since the apparent Km was two-thirds to three-quarters that of 6-methyl and 6,7-dimethyltetrahydropterin (Table IV). […] The maximum velocity of the reaction with 6,6-Me₂PH₄ is similar to that with the 6,7-dimethyl compound and about 6 times slower than with the natural cofactor (Table IV).

[6] = substrate: CC1(C)CNc2nc(N)[nH]c(=O)c2N1; experiment: as above; assay type: biochemical, Rat; settings: other: 1 mM phenylalanine, atmospheric oxygen, 0.1 M Tris·HCl, pH 7.4, 27°C
Protocol: as §1

[7] = other: substrate produced by Bromine oxidation, 0.1 M Tris·HCl, pH 7.4, 27°C
[8] = other: substrate produced by Phe hydroxylase + phe, pH 7.4, 27.0 °C

B1: Beef Liver Dihydropteridine Reductase (Bos taurus) (protein)
chain: MAAAAGEARRVLVYGGRGALGSRCVQAFRARNWWVASIDVQENEEASANVVVKMTDSFTEQADQVTAEVGKLLGTEKVDAILCVAGGWAGGNAKSKSLFKNCDLMWKQSVWTSTISSHLATKHLKEGGLLTLAGARAALDGTPGMIGYGMAKAAVHQLCQSLAGKSSGLPPGAAAVALLPVTLDTPVNRKSMPEADFSSWTPLEFLVETFHDWITEKNRPSSGSLIQVVTTEGKTELTAASP
notes: from tissue; host or cells: beef liver
With B1 the Km [1] was 30 µM, the Km [2, 7] was 400 µM and the Km ([2]; other: substrate produced by Peroxidase + H2O2, pH 7.4, 27.0 °C) was 400 µM. For the same protein, the Km [2, 8] was 400 µM and the Km [3] was 70 µM.

B2: Sheep Liver Dihydropteridine Reductase (Ovis aries) (protein)
chain: WVASIDVQENEEASANVVVKMTDSFTEQADQVTAEVGELLGTEKVDAILCVAGGWAGGNAKSKSLFKNCDLMWKQSVWTSTISSHLATKHLKEGGLLTLAGARAALDGTPGMIGYGMAKAAVHQLCRSLAGKNSGLPPGAAAVALLPVTLDTPVNRKSMPEADFSSWTPLEFLVETFHDWITEKNRPSSGSLIQVVTTEGKTELTTASL
B2 gave a Km [4, 7] of 400 µM and a Km [4, 8] of 400 µM.

B3: Rat Liver Phenylalanine Hydroxylase (Rattus norvegicus) (protein)
chain: MAAVVLENGVLSRKLSDFGQETSYIEDNSNQNGAISLIFSLKEEVGALAKVLRLFEENDINLTHIESRPSRLNKDEYEFFTYLDKRTKPVLGSIIKSLRNDIGATVHELSRDKEKNTVPWFPRTIQELDRFANQILSYGAELDADHPGFKDPVYRARRKQFADIAYNYRHGQPIPRVEYTEEEKQTWGTVFRTLKALYKTHACYEHNHIFPLLEKYCGFREDNIPQLEDVSQFLQTCTGFRLRPVAGLLSSRDFLGGLAFRVFHCTQYIRHGSKPMYTPEPDICHELLGHVPLFSDRSFAQFSQEIGLASLGAPDEYIEKLATIYWFTVEFGLCKEGDSIKAYGAGLLSSFGELQYCLSDKPKLLPLELEKTACQEYSVTEFQPLYYVAESFSDAKEKVRTFAATIPRPFSVRYDPYTQRVEVLDNTQQLKILADSINSEVGILCNALQKIKS
notes: Cofactor for Rat Liver Phenylalanine Hydroxylase; from tissue; host or cells: rat liver
Work on B3 yielded a Km [5] of 100 ± 20 µM and a Km [6] of 66 ± 10 µM.
